In article PMC7671035 one finds fold shift in EC50 compared with the ELR+CXC chemokines and Kd data, which are given here for three substances.

One experiment has as its target human CXCL11 (human) (UniProt O14625). Description: ELISA.
For another experiment, the target named is LY3041658 (human). Description: SPR.

Sequence of human CXCL9 (Q07325 23-125): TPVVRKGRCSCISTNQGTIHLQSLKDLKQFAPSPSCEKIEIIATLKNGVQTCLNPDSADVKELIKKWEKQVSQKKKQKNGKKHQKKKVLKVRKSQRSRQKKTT
Sequence of human CXCL11 (O14625 22-94): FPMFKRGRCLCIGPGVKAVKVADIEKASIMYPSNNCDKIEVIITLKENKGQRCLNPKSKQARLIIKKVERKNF
Sequence of human CXCL11 (human) (O14625 22-94): as above

Regarding LY3041658 (antibody), in the experiment with human CXCL11 (human), the fold shift in EC50 compared with the ELR+CXC chemokines worked out at 200 fold.

Turning to “human CXCL9 (from UniProt Q07325 23-125) (ligand)”, in the experiment with LY3041658 (human), the dissociation constant Kd came out at 100 nM.

“human CXCL11 (from UniProt O14625 22-94) (ligand)” displayed a Kd with LY3041658 (human) of 100 nM. This lies in the sub-micromolar range.
